# Reference: patent US20130196320A1, “METHOD FOR IMPROVING CLEAVAGE OF DNA BY ENDONUCLEASE SENSITIVE TO METHYLATION” (CELLECTIS, priority 2010, published 2013)
# Read-outs that look alike come from different tables or passages of the source.
# B1: ADCY9: engineered meganuclease (SEQ ID NO: 3) designed to cleave adenylate cyclase 9 gene (protein)
# chain: MANTKYNEEFLLYLAGFVDGDGSIIAQIKPNQSYKFKHQLSLTFRVTQKTQRRWFLDKLVDEIGVGYVRDSGSVSNYDLSEIKPLHNFLTQLQPFLELKQKQANLVLKIIEQLPSAKESPDKFLEVCTWVDQVAALNDSKTRKTTSETVRAVLDSLSEKKKSSPAAGGSDKYNQALSKYNQALSKYNQALSGGGGSNKKFLLYLAGFVDSDGSIIAQIKPDQSYKFKHQLGLTFQVTQKTQRRWFLDKLVDRIGVGYVRDRGSVSDYILSEIKPLHNFLTQLQPFLKLKQKQANLVLKIIEQLPSAKESPDKFLEVCTWVDQVAALNDSKTRKTTSETVRAVLDSLSEKKKSSP
# Molecular target: ADCY9.1 DNA target
# Assay: In vitro binding assay, fluorescence anisotropy of fluorescein-labeled ADCY9.1 duplex
# Description: FIG. 12: Spectrofluorimetric titration of fluorescein-labeled ADCY9.1 by ADCY9. 50 nM of ADCY9.1 duplex was incubated with increasing concentrations of ADCY9 (from 0 to 1.5 μM) in binding buffer (10 mM Tris-HCl, 150 mM NaCl, 10 mM CaCl2, 10 mM DTT, pH8) at 25° C. After 30 minutes incubation, the fluorescence anisotropy of the mixture was recorded with a Pherastar Plus (BMG Labtech) operating in fluorescence polarization end point mode with excitation and emission wavelengths set to 495 and 520 nm respectively. Normalized fluorescence anisotropy is plotted as a function of ADCY9 concentration. Apparent dissociation constant were determined by fitting raw data by an hyperbolic function (Ax=(A∞*[Meganuclease])/(Kd+[Meganuclease]) with Ax, the fluorescence anisotropy value obtained at a given meganuclease concentration, A∞ the fluorescence anisotropy value obtained at saturating concentration of meganuclease and Kd the dissociation constant of the equilibrium studied).
# Fluorescein labeled C1234 oligonucleotides were synthesized and HPLC-purified by Eurogentec. […] C 1234 duplex and fluorescein final concentrations were assessed by spectrophotometry using their respective extinction coefficients ε260nm=62900 M^−1 cm^−1 and ε495nm=83000 M^−1 cm^−1. […]
molecule,measurement,setting,value
B1,Kd,"ADCY9.1_Me −3a/−2b (fully methylated), sigmoidal pattern, read-out: Kd (apparent)",431 ± 30 nM
same,Kd,"unmethylated ADCY9.1, read-out: Kd",190 ± 19 nM
